Where “and” joins values, the source holds several entries; their conditions need not be identical. Equal values may be shown once. Read-outs that look alike come from different tables or passages of the source.

These results are taken from patent publication USRE50618E1, “Anionic-core composition for delivery of therapeutic agents, and methods of making and using the same” (PharmaIN Corporation, priority 2009, dated 2025).

One series deals with bacteria. The note with it: cited from earlier work.
A further series relates to adenoviral infection. To be noted: cited from earlier work.
The conditions of series [1]: cited from earlier work; for isoelectric point (pI): stated in the description; for Isoelectric Point: peptide or protein load molecule, Table 7.
The conditions of series [2]: rat, in vivo, 10 mg/kg.
Series [3] in a line: Lysostaphin PK study (serum lysostaphin activity assay). The note with it: Sprague Dawley rats, i.v. bolus 12 mg lysostaphin/Kg; lysostaphin 50% of carrier weight. It counts as in vivo. How it is done:
Four carriers were selected for PK study. CSPEG106G, HPPEG105G, 20PLPEG1030-DTPA, and 20PLPEG1030-DTPA-SO were loaded with Lysostaphin equivalent to 50% of the carrier weight. These formulations were obtained by dissolving together an appropriate amount of carrier and Lysostaphin in water and incubating for two hours followed by lyophilization. Each lyophilized formulation (including unformulated lysostaphin alone) was dissolved in saline and administered to Sprague Dawley rats (n=4) by slow (at least 1 min) i.v. bolus (12 mg lysostaphin/Kg) via the lateral tail vein. Blood samples were taken from the orbital sinus at 5 m, 15 m, 30 m, 60 m, 120 m, 4 h, 6 h, 24 h, 32 h (30 h), and 48 h and placed in tubes containing Protease Inhibitors (AEBSF, Aprotinin, E-64, EDTA, and Leupeptin). Sera were obtained by centrifugation at 13,000 rpm. All the sera were stored at −80° C. until used in the assay. 100 of serum was used in this assay for each time point. Lysostaphin's activity was measured by activity assay as follow: Stock buffer (10×) was prepared to contain 1M MOPS/10% Tween (by wt.)/5 mM EDTA/pH 7.3. The final reaction mixtures (2000) in black 96-well plate were prepared to contain 5 μg substrate, 100 mM MOPS, 1% Tween20, 0.5 mM EDTA, pH 7.3, and 100 of serum samples. The samples were added last and after addition the wells were mixed and bubbles in the solution was removed using pipette tip wet with ethanol. Fluorescence (Ex485 nm/Em535 nm) increase was monitored for two hours using Chameleon 96-well microplate fluorometer (Bioscan) every 7.5 minutes for 2 hours. The substrate gave fluorescence product when lysostaphin proteolytically cleaved it.

Regarding “(klaklak)2: synthetic 14 amino acid D-peptide, programmed cell death-inducing sequence (KLAKLAKKLAKLAK; D-amino acids, C-terminal amide)”, the “concentration that kills bacteria relative to that required to kill eukaryotic cells” value in the series on bacteria is 1%.
Turning to “ACYCRIPACI-AGERRYGTCI-YQGRLWAFCC [HNP-1]”, the “reduction of adenoviral infection” value with adenoviral infection was “more than 95%”.
For Fibroblast growth factor, the “isoelectric point (pI)” value in series [1] is 8.0-9.0 and 9.6.
As to “GLP1: peptide load molecule with isoelectric point 5.4 used in Table 7”, the “Isoelectric Point” value in series [1] is on record as 5.4.
In the case of “H-RRRPRPPYLPRPRPPPFFPPRLPPRIPPGFPPRFPPRFP-OH [PR39]”, the “Isoelectric Point” value in series [1] is listed as 9.96. In series [2], this molecule had a level at 24 h of 370 ng/mL and a level at 48 h of 30 ng/mL.
As for “Heparin-binding EGF: EGF-related growth factor that signals through the EGF receptor and binds heparin”, the “Isoelectric Point” value in series [1] is given as 8.56.
With “Lysostaphin: 25-kDa peptidase produced by Staphylococcus simulans, cleaves glycine-glycine bond of Staphylococcus aureus cell wall cross-bridge”, in series [3], the AUC0 to last is recorded as 64.2 hr (μg/ml), the “AUC0 to ∞” value was 67 hr (μg/ml), the C0 amounted to 301 µg/mL and the Mean residence time was 0.984 h. Moreover, in series [3], the “Terminal t1/2” value came out at 1.53 h. In series [1], the “Isoelectric Point” value is reported as 9.56 and the “isoelectric point (pI)” value is 9-10. Moreover, the “isoelectric point (pI)” value in series [1] (listed as lysostaphin) is 9.56.
Consider “Nerve growth factor: growth factor listed as basic protein load molecule”, for which the “isoelectric point (pI)” value in series [1] is 8.5-9.5.
Turning to Vascular endothelial growth factor, the “isoelectric point (pI)” value in series [1] is 8.0-9.5.
Turning to “erythropoietin without sialic acid: erythropoietin without sialic acid, listed as load molecule”, in series [1], the “isoelectric point (pI)” value was 8.5.
Regarding platelet derived growth factor, in series [1], the “isoelectric point (pI)” value is 8.5-10.

B1: Interferon gamma: type II interferon with anti-viral and anti-scarring activity (protein, UniProt P01579 24-161, looked up)
Interferon gamma: QDPYVKEAENLKKYFNAGHSDVADNGTLFLGILKNWKEESDRKIMQSQIVSFYFKLFKNFKDDQSIQKSVETIKEDMNVKFFNSNKKKRDDFEKLTNYSVTDLNVQRKAIHELIQVMAELSPAAKTGKRKRSQMLFRG
For B1, in series [1], the “isoelectric point (pI)” value is listed as 8.5-9.5.
